According to PMC12866175 (European journal of nuclear medicine and molecular imaging, 2021):

Test: Radiation dosimetry and clearance kinetics from biodistribution data
Assay type: in vivo, BALB/c mice
Conditions: for Total absorbed dose/injected activity: sum of five α-emitting radionuclides

C[C@@H](O)[C@H](NC(=O)[C@@H]1CSSC[C@H](NC(=O)[C@@H](Cc2ccccc2)NC(=O)CN2CCN(CC(=O)O)CCN(CC(=O)O)CCN(CC(=O)O)CC2)C(=O)N[C@@H](Cc2ccc(O)cc2)C(=O)N[C@H](Cc2c[nH]c3ccccc23)C(=O)N[C@@H](CCCCN)C(=O)N[C@@H]([C@@H](C)O)C(=O)N1)C(=O)O [[^225Ac]Ac-DOTA-TATE, metal not drawn]
Initial activity/organ, A○ (^217At, Muscle): 0.0052 kBq | Absorbed dose/injected activity (^217At, Pancreas): 0.0003 Gy/kBq | Accumulated activity/organ, A~ (^217At, Pancreas): 1.1933 kBq×h | Decay rate constant, λeff (^217At, Pancreas): 0.0080 h⁻¹ | Initial activity/organ, A○ (^217At, Pancreas): 0.0169 kBq | Absorbed dose/injected activity (^217At, Salivary): 0.0002 Gy/kBq | Accumulated activity/organ, A~ (^217At, Salivary): 0.7036 kBq×h | Decay rate constant, λeff (^217At, Salivary): -0.0028 h⁻¹ | Initial activity/organ, A○ (^217At, Salivary): 0.0037 kBq | Absorbed dose/injected activity (^217At, Skin): 0.0001 Gy/kBq | Accumulated activity/organ, A~ (^217At, Skin): 0.6489 kBq×h | Decay rate constant, λeff (^217At, Skin): -0.0015 h⁻¹ | Initial activity/organ, A○ (^217At, Skin): 0.0039 kBq | Absorbed dose/injected activity (^217At, Spleen): 0.0004 Gy/kBq | Accumulated activity/organ, A~ (^217At, Spleen): 1.0604 kBq×h | Decay rate constant, λeff (^217At, Spleen): 0.0030 h⁻¹ | Initial activity/organ, A○ (^217At, Spleen): 0.0097 kBq | Absorbed dose/injected activity (^217At, Stomach): 0.0005 Gy/kBq | Accumulated activity/organ, A~ (^217At, Stomach): 3.0452 kBq×h | Decay rate constant, λeff (^217At, Stomach): 0.0170 h⁻¹ | Absorbed dose/injected activity (^221Fr, Blood): 0.0001 Gy/kBq | Accumulated activity/organ, A~ (^221Fr, Blood): 0.5594 kBq×h | Decay rate constant, λeff (^221Fr, Blood): -0.0071 h⁻¹ | Initial activity/organ, A○ (^221Fr, Blood): 0.0019 kBq | Absorbed dose/injected activity (^221Fr, Bone): 0.0003 Gy/kBq | Accumulated activity/organ, A~ (^221Fr, Bone): 1.0195 kBq×h | Decay rate constant, λeff (^221Fr, Bone): 0.0100 h⁻¹ | Initial activity/organ, A○ (^221Fr, Bone): 0.0170 kBq | Absorbed dose/injected activity (^221Fr, Brain): 0.0001 Gy/kBq | Accumulated activity/organ, A~ (^221Fr, Brain): 0.7934 kBq×h | Decay rate constant, λeff (^221Fr, Brain): -0.0044 h⁻¹ | Initial activity/organ, A○ (^221Fr, Brain): 0.0036 kBq | Absorbed dose/injected activity (^221Fr, Heart): 0.0000 Gy/kBq | Accumulated activity/organ, A~ (^221Fr, Heart): 0.2102 kBq×h | Decay rate constant, λeff (^221Fr, Heart): 0.0190 h⁻¹ | Initial activity/organ, A○ (^221Fr, Heart): 0.0067 kBq | Absorbed dose/injected activity (^221Fr, Intestine): 0.0002 Gy/kBq | Accumulated activity/organ, A~ (^221Fr, Intestine): 7.2991 kBq×h | Decay rate constant, λeff (^221Fr, Intestine): 0.0130 h⁻¹ | Absorbed dose/injected activity (^221Fr, Kidney): 0.0019 Gy/kBq | Accumulated activity/organ, A~ (^221Fr, Kidney): 12.5136 kBq×h | Decay rate constant, λeff (^221Fr, Kidney): 0.0190 h⁻¹ | Initial activity/organ, A○ (^221Fr, Kidney): 0.4011 kBq | Absorbed dose/injected activity (^221Fr, Liver): 0.0014 Gy/kBq | Accumulated activity/organ, A~ (^221Fr, Liver): 32.1637 kBq×h | Decay rate constant, λeff (^221Fr, Liver): -0.0033 h⁻¹ | Initial activity/organ, A○ (^221Fr, Liver): 0.1612 kBq | Absorbed dose/injected activity (^221Fr, Lung): 0.0003 Gy/kBq | Accumulated activity/organ, A~ (^221Fr, Lung): 1.7734 kBq×h | Decay rate constant, λeff (^221Fr, Lung): 0.0080 h⁻¹ | Initial activity/organ, A○ (^221Fr, Lung): 0.0251 kBq | Absorbed dose/injected activity (^221Fr, Muscle): 0.0000 Gy/kBq | Accumulated activity/organ, A~ (^221Fr, Muscle): 0.1848 kBq×h | Decay rate constant, λeff (^221Fr, Muscle): 0.0170 h⁻¹ | Initial activity/organ, A○ (^221Fr, Muscle): 0.0052 kBq | Absorbed dose/injected activity (^221Fr, Pancreas): 0.0003 Gy/kBq | Accumulated activity/organ, A~ (^221Fr, Pancreas): 1.1933 kBq×h | Decay rate constant, λeff (^221Fr, Pancreas): 0.0080 h⁻¹ | Initial activity/organ, A○ (^221Fr, Pancreas): 0.0169 kBq | Absorbed dose/injected activity (^221Fr, Salivary): 0.0002 Gy/kBq | Accumulated activity/organ, A~ (^221Fr, Salivary): 0.7036 kBq×h | Decay rate constant, λeff (^221Fr, Salivary): -0.0028 h⁻¹ | Initial activity/organ, A○ (^221Fr, Salivary): 0.0037 kBq | Absorbed dose/injected activity (^221Fr, Skin): 0.0001 Gy/kBq | Accumulated activity/organ, A~ (^221Fr, Skin): 0.6489 kBq×h | Decay rate constant, λeff (^221Fr, Skin): -0.0015 h⁻¹ | Initial activity/organ, A○ (^221Fr, Skin): 0.0039 kBq | Absorbed dose/injected activity (^221Fr, Spleen): 0.0004 Gy/kBq | Accumulated activity/organ, A~ (^221Fr, Spleen): 1.0604 kBq×h | Decay rate constant, λeff (^221Fr, Spleen): 0.0030 h⁻¹ | Initial activity/organ, A○ (^221Fr, Spleen): 0.0097 kBq | Absorbed dose/injected activity (^221Fr, Stomach): 0.0004 Gy/kBq | Accumulated activity/organ, A~ (^221Fr, Stomach): 3.0452 kBq×h | Decay rate constant, λeff (^221Fr, Stomach): 0.0170 h⁻¹ | Initial activity/organ, A○ (^221Fr, Stomach): 0.0852 kBq | lower effective half-life of kidneys compared to liver (^225Ac): ~5 fold | Absorbed dose/injected activity (^225Ac, Blood): 0.0000 Gy/kBq | Accumulated activity/organ, A~ (^225Ac, Blood): 0.0080 kBq×h | Decay rate constant, λeff (^225Ac, Blood): 0.0206 h⁻¹ | Initial activity/organ, A○ (^225Ac, Blood): 0.0003 kBq | Absorbed dose/injected activity (^225Ac, Bone): 0.0004 Gy/kBq | Accumulated activity/organ, A~ (^225Ac, Bone): 1.4274 kBq×h | Decay rate constant, λeff (^225Ac, Bone): 0.0030 h⁻¹ | Initial activity/organ, A○ (^225Ac, Bone): 0.0131 kBq | Absorbed dose/injected activity (^225Ac, Brain): 0.0001 Gy/kBq | Accumulated activity/organ, A~ (^225Ac, Brain): 0.8190 kBq×h | Decay rate constant, λeff (^225Ac, Brain): -0.0103 h⁻¹ | Initial activity/organ, A○ (^225Ac, Brain): 0.0019 kBq | Absorbed dose/injected activity (^225Ac, Heart): 0.0001 Gy/kBq | Accumulated activity/organ, A~ (^225Ac, Heart): 0.4871 kBq×h | Decay rate constant, λeff (^225Ac, Heart): -0.0004 h⁻¹ | Initial activity/organ, A○ (^225Ac, Heart): 0.0033 kBq | Absorbed dose/injected activity (^225Ac, Intestine): 0.0001 Gy/kBq | Accumulated activity/organ, A~ (^225Ac, Intestine): 4.4589 kBq×h | Decay rate constant, λeff (^225Ac, Intestine): 0.0200 h⁻¹ | Initial activity/organ, A○ (^225Ac, Intestine): 0.1527 kBq | Absorbed dose/injected activity (^225Ac, Kidney): 0.0012 Gy/kBq | Accumulated activity/organ, A~ (^225Ac, Kidney): 8.2462 kBq×h | Decay rate constant, λeff (^225Ac, Kidney): 0.0250 h⁻¹ | Initial activity/organ, A○ (^225Ac, Kidney): 0.3862 kBq | Absorbed dose/injected activity (^225Ac, Liver): 0.0012 Gy/kBq | Accumulated activity/organ, A~ (^225Ac, Liver): 29.4458 kBq×h | Decay rate constant, λeff (^225Ac, Liver): -0.0053 h⁻¹ | Initial activity/organ, A○ (^225Ac, Liver): 0.1200 kBq | Absorbed dose/injected activity (^225Ac, Lung): 0.0001 Gy/kBq | Accumulated activity/organ, A~ (^225Ac, Lung): 1.0829 kBq×h | Decay rate constant, λeff (^225Ac, Lung): 0.0130 h⁻¹ | Initial activity/organ, A○ (^225Ac, Lung): 0.0227 kBq | Absorbed dose/injected activity (^225Ac, Muscle): 0.0001 Gy/kBq | Accumulated activity/organ, A~ (^225Ac, Muscle): 0.5613 kBq×h | Decay rate constant, λeff (^225Ac, Muscle): -0.0049 h⁻¹ | Initial activity/organ, A○ (^225Ac, Muscle): 0.0024 kBq | Absorbed dose/injected activity (^225Ac, Pancreas): 0.0003 Gy/kBq | Accumulated activity/organ, A~ (^225Ac, Pancreas): 1.4271 kBq×h | Decay rate constant, λeff (^225Ac, Pancreas): 0.0060 h⁻¹ | Initial activity/organ, A○ (^225Ac, Pancreas): 0.0171 kBq | Absorbed dose/injected activity (^225Ac, Salivary): 0.0002 Gy/kBq | Accumulated activity/organ, A~ (^225Ac, Salivary): 0.8906 kBq×h | Decay rate constant, λeff (^225Ac, Salivary): -0.0077 h⁻¹ | Initial activity/organ, A○ (^225Ac, Salivary): 0.0028 kBq | Absorbed dose/injected activity (^225Ac, Skin): 0.0001 Gy/kBq | Accumulated activity/organ, A~ (^225Ac, Skin): 0.8656 kBq×h | Decay rate constant, λeff (^225Ac, Skin): -0.0092 h⁻¹ | Initial activity/organ, A○ (^225Ac, Skin): 0.0023 kBq | Absorbed dose/injected activity (^225Ac, Spleen): 0.0001 Gy/kBq | Accumulated activity/organ, A~ (^225Ac, Spleen): 0.3228 kBq×h | Decay rate constant, λeff (^225Ac, Spleen): 0.0062 h⁻¹ | Initial activity/organ, A○ (^225Ac, Spleen): 0.0039 kBq | Absorbed dose/injected activity (^225Ac, Stomach): 0.0004 Gy/kBq | Accumulated activity/organ, A~ (^225Ac, Stomach): 2.6801 kBq×h | Decay rate constant, λeff (^225Ac, Stomach): 0.0190 h⁻¹ | Initial activity/organ, A○ (^225Ac, Stomach): 0.0859 kBq | Total absorbed dose/injected activity (Blood): 0.0002 Gy/kBq | Total absorbed dose/injected activity (Bone): 0.0014 Gy/kBq | Total absorbed dose/injected activity (Brain): 0.0004 Gy/kBq | Total absorbed dose/injected activity (Heart): 0.0004 Gy/kBq | Total absorbed dose/injected activity (Intestine): 0.0007 Gy/kBq | Total absorbed dose/injected activity (Kidney): 0.0068 Gy/kBq | Total absorbed dose/injected activity (Liver): 0.0059 Gy/kBq | Total absorbed dose/injected activity (Lung): 0.0009 Gy/kBq | Total absorbed dose/injected activity (Muscle): 0.0003 Gy/kBq | Total absorbed dose/injected activity (Pancreas): 0.0011 Gy/kBq | Total absorbed dose/injected activity (Salivary): 0.0008 Gy/kBq | Total absorbed dose/injected activity (Skin): 0.0004 Gy/kBq | Total absorbed dose/injected activity (Spleen): 0.0016 Gy/kBq | Total absorbed dose/injected activity (Stomach): 0.0017 Gy/kBq
